From the Immune Epitope Database (IEDB)

What was measured:
[1] = biological target: HLA-B*27:05; assay: IEDB peptide-MHC binding, cellular MHC/competitive/radioactivity; ≥ and ≤ were set here for values at or beyond the usual limits of such assays; settings: source organism: Hepacivirus hominis
[2] = biological target: HLA-A*01:01; assay: IEDB peptide-MHC binding, purified MHC/competitive/fluorescence; filed as Kd, often an IC50 or EC50 that approximates it; ≥ and ≤ were set here for values at or beyond the usual limits of such assays; settings: source organism: Rattus norvegicus
[3] = biological target: HLA-A*29:02; assay: as above; settings: source organism: Rattus norvegicus
[4] = biological target: HLA-A*80:01; assay: IEDB peptide-MHC binding, purified MHC/direct/fluorescence; filed as Kd, often an IC50 or EC50 that approximates it; ≥ and ≤ were set here for values at or beyond the usual limits of such assays
[5] = biological target: HLA-A*02:03; assay: IEDB peptide-MHC binding, purified MHC/competitive/radioactivity; filed as Kd, often an IC50 or EC50 that approximates it; ≥ and ≤ were set here for values at or beyond the usual limits of such assays; settings: source organism: Trypanosoma cruzi
[6] = biological target: HLA-A*68:02; assay: as above; settings: source organism: Trypanosoma cruzi
[7] = biological target: HLA-A*02:06; assay: as above; settings: source organism: Trypanosoma cruzi
[8] = biological target: HLA-A*02:02; assay: as above; settings: source organism: Trypanosoma cruzi
[9] = biological target: HLA-A*02:01; assay: IEDB peptide-MHC binding, purified MHC/competitive/radioactivity; ≥ and ≤ were set here for values at or beyond the usual limits of such assays; settings: source organism: Trypanosoma cruzi
[10] = biological target: HLA-B*45:06; assay: IEDB peptide-MHC binding, purified MHC/competitive/fluorescence; filed as Kd, often an IC50 or EC50 that approximates it; ≥ and ≤ were set here for values at or beyond the usual limits of such assays
[11] = biological target: HLA-A*24:02; assay: as above
[12] = biological target: HLA-A*03:19; assay: as above; settings: source organism: Yersinia pestis Nepal516
[13] = biological target: HLA-C*14:02; assay: as above; settings: source organism: Yersinia pestis Nepal516
[14] = biological target: HLA-A*32:07; assay: as above; settings: source organism: Yersinia pestis Nepal516
[15] = biological target: HLA-A*32:15; assay: as above; settings: source organism: Yersinia pestis Nepal516
[16] = biological target: HLA-A*68:23; assay: as above; settings: source organism: Yersinia pestis Nepal516
[17] = biological target: HLA-C*06:02; assay: as above; settings: source organism: Yersinia pestis Nepal516
[18] = biological target: HLA-B*15:42; assay: as above
[19] = biological target: HLA-C*04:01; assay: as above; settings: source organism: Yersinia pestis Nepal516
[20] = biological target: HLA-C*15:02; assay: IEDB peptide-MHC binding, purified MHC/direct/fluorescence; filed as Kd, often an IC50 or EC50 that approximates it; ≥ and ≤ were set here for values at or beyond the usual limits of such assays; settings: source organism: Yersinia pestis Nepal516
[21] = biological target: HLA-B*35:01; assay: IEDB peptide-MHC binding, purified MHC/competitive/fluorescence; filed as Kd, often an IC50 or EC50 that approximates it; ≥ and ≤ were set here for values at or beyond the usual limits of such assays; settings: source organism: Yersinia pestis Nepal516
[22] = biological target: HLA-B*07:02; assay: as above; settings: source organism: Yersinia pestis Nepal516
[23] = biological target: HLA-B*15:02; assay: as above; settings: source organism: Yersinia pestis Nepal516
[24] = biological target: HLA-B*46:01; assay: as above; settings: source organism: Yersinia pestis Nepal516
[25] = biological target: HLA-B*15:01; assay: as above; settings: source organism: Yersinia pestis Nepal516
[26] = biological target: HLA-C*07:02; assay: IEDB peptide-MHC binding, purified MHC/direct/fluorescence; filed as Kd, often an IC50 or EC50 that approximates it; ≥ and ≤ were set here for values at or beyond the usual limits of such assays
[27] = biological target: HLA-B*51:01; assay: IEDB peptide-MHC binding, purified MHC/competitive/fluorescence; filed as Kd, often an IC50 or EC50 that approximates it; ≥ and ≤ were set here for values at or beyond the usual limits of such assays; settings: source organism: Yersinia pestis Nepal516
[28] = biological target: HLA-B*08:01; assay: as above; settings: source organism: Yersinia pestis Nepal516
[29] = biological target: HLA-B*48:01; assay: as above; settings: source organism: Escherichia coli B171
[30] = biological target: HLA-B*83:01; assay: as above
[31] = biological target: HLA-B*27:20; assay: as above
[32] = biological target: HLA-B*73:01; assay: as above; settings: source organism: Salmonella enterica subsp. enterica serovar Typhimurium str. LT2
[33] = biological target: HLA-A*01:01; assay: IEDB peptide-MHC binding, purified MHC/direct/fluorescence; filed as Kd, often an IC50 or EC50 that approximates it; ≥ and ≤ were set here for values at or beyond the usual limits of such assays; settings: source organism: Mammarenavirus lassaense
[34] = biological target: HLA-B*39:01; assay: IEDB peptide-MHC binding, purified MHC/competitive/fluorescence; filed as Kd, often an IC50 or EC50 that approximates it; ≥ and ≤ were set here for values at or beyond the usual limits of such assays; settings: source organism: Yersinia pestis Nepal516
[35] = biological target: HLA-C*12:03; assay: IEDB peptide-MHC binding, purified MHC/direct/fluorescence; filed as Kd, often an IC50 or EC50 that approximates it; ≥ and ≤ were set here for values at or beyond the usual limits of such assays; settings: source organism: Yersinia pestis Nepal516
[36] = biological target: HLA-C*03:03; assay: as above; settings: source organism: Yersinia pestis Nepal516
[37] = biological target: HLA-C*04:01; assay: as above; settings: source organism: Entamoeba dispar SAW760
[38] = source organism: Yersinia pestis Nepal516
[39] = source organism: Human herpesvirus 4 strain B95-8
[40] = source organism: Entamoeba dispar SAW760

Sequence: ARMILMTHF
- IC50 [1]: 1.1 nM

Sequence: FFGETSHNY
- Kd [2]: ≥ 20000 nM
- Kd [3]: ≤ 0.1 nM
- Kd ([4]; source organism: Mus musculus): ≥ 20000 nM

Sequence: FLSHNFTLV
- Kd [5]: 0.0232 nM
- Kd [6]: 27.1 nM
- Kd [7]: 0.445 nM
- Kd [8]: 0.047 nM
- IC50 [9]: 0.61 nM

Sequence: FYFNWNTPI
- Kd [10, 38]: ≥ 5000 nM
- Kd [11, 38]: ≤ 0.1 nM
- Kd [12]: 1420 nM
- Kd [13]: ≤ 0.1 nM
- Kd [14]: 0.2 nM
- Kd [15]: 7.2 nM
- Kd [16]: 23.5 nM
- Kd [17]: 33.9 nM
- Kd [18, 38]: ≥ 5000 nM
- Kd [19]: 300 nM
- Kd [20]: 1060 nM

Sequence: HLIQNPNPF
- Kd [21]: 27.3 nM
- Kd [22]: 6500 nM
- Kd [23]: 17.3 nM
- Kd [24]: 8050 nM
- Kd [25]: 30.8 nM
- Kd [26, 38]: 626 nM

Sequence: LPFLKSLAI
- Kd [21]: 46.1 nM
- Kd [22]: 12.6 nM
- Kd [27]: 841 nM
- Kd [28]: 105 nM
- Kd [25]: ≥ 20000 nM

Sequence: RQNLSSSEL
- Kd [29]: 192 nM

Sequence: RRAALSGHL
- Kd [10, 39]: ≥ 5000 nM
- Kd [30, 39]: ≥ 5000 nM
- Kd [31, 39]: 0.2 nM
- Kd [18, 39]: ≥ 5000 nM

Sequence: WRLYSPPPV
- Kd [32]: 118 nM

Sequence: YENAVWDQY
- Kd [33]: 537 nM
- Kd ([4]; source organism: Mammarenavirus lassaense): 463 nM

Sequence: YRYCHQLAL
- Kd [34]: 1.2 nM
- Kd [10, 38]: ≥ 5000 nM
- Kd [30, 38]: ≥ 5000 nM
- Kd [31, 38]: 0.2 nM
- Kd [17]: 1.8 nM
- Kd [18, 38]: ≥ 5000 nM
- Kd [20]: ≥ 20000 nM
- Kd [35]: 206 nM
- Kd [26, 38]: 39 nM
- Kd [36]: 164 nM

Sequence: YYSNKVFPI
- Kd [11, 40]: ≤ 0.1 nM
- Kd [37]: ≥ 20000 nM
- Kd [26, 40]: 245 nM
